Experimental data reported in the Immune Epitope Database (IEDB).

Legend:
[1] = molecular target: HLA-A*02:01; assay: IEDB peptide-MHC binding, purified MHC/competitive/fluorescence; ≥ and ≤ were set here for values at or beyond the usual limits of such assays
[2] = molecular target: HLA-A*24:02; assay: IEDB peptide-MHC binding, purified MHC/competitive/radioactivity; filed as Kd, often an IC50 or EC50 that approximates it; ≥ and ≤ were set here for values at or beyond the usual limits of such assays
[3] = molecular target: HLA-A*01:01; assay: as above
[4] = molecular target: HLA-A*30:02; assay: as above
[5] = molecular target: HLA-A*26:01; assay: as above
[6] = molecular target: HLA-A*23:01; assay: as above
[7] = molecular target: HLA-A*29:02; assay: as above
[8] = molecular target: HLA-B*44:02; assay: as above
[9] = molecular target: HLA-B*44:03; assay: as above
[10] = molecular target: HLA-B*15:01; assay: IEDB peptide-MHC binding, purified MHC/direct/fluorescence; filed as Kd, often an IC50 or EC50 that approximates it; ≥ and ≤ were set here for values at or beyond the usual limits of such assays
[11] = molecular target: HLA-A*02:01; assay: as above; details: source organism: Vaccinia virus Copenhagen
[12] = molecular target: HLA-B*58:01; assay: as above; details: source organism: Vaccinia virus Copenhagen
[13] = molecular target: HLA-A*69:01; assay: as above; details: source organism: Vaccinia virus Copenhagen
[14] = molecular target: HLA-A*11:01; assay: as above
[15] = molecular target: HLA-B*40:01; assay: IEDB peptide-MHC binding, purified MHC/competitive/radioactivity; filed as Kd, often an IC50 or EC50 that approximates it; ≥ and ≤ were set here for values at or beyond the usual limits of such assays
[16] = molecular target: HLA-A*68:01; assay: as above; details: source organism: SARS coronavirus Tor2
[17] = molecular target: HLA-A*11:01; assay: as above; details: source organism: SARS coronavirus Tor2
[18] = molecular target: HLA-A*33:01; assay: as above; details: source organism: SARS coronavirus Tor2
[19] = molecular target: HLA-A*03:01; assay: as above; details: source organism: SARS coronavirus Tor2
[20] = molecular target: HLA-A*31:01; assay: as above; details: source organism: SARS coronavirus Tor2
[21] = molecular target: HLA-A*01:01; assay: IEDB peptide-MHC binding, purified MHC/direct/fluorescence; filed as Kd, often an IC50 or EC50 that approximates it; ≥ and ≤ were set here for values at or beyond the usual limits of such assays; details: source organism: Human immunodeficiency virus 1
[22] = source organism: Zaire ebolavirus
[23] = source organism: Mammarenavirus machupoense
[24] = source organism: Dengue virus 4 Philippines/H241/1956
[25] = source organism: SARS coronavirus Tor2
[26] = source organism: Vaccinia virus Copenhagen
[27] = source organism: Dengue virus 1 Brazil/97-11/1997
[28] = source organism: Dengue virus 3 Martinique/1243/1999
[29] = source organism: Dengue virus 2 Jamaica/1409/1983
[30] = source organism: Mammarenavirus lassaense
[31] = source organism: Mammarenavirus juninense
[32] = source organism: Lassa virus Josiah
[33] = source organism: Triticum aestivum
[34] = source organism: Lymphocytic choriomeningitis virus (strain Armstrong)
[35] = source organism: Human immunodeficiency virus 1
[36] = source organism: Lassa virus GA391

AATEAEKQL
IC50 [1, 22]: ≥ 436000 nM

AESLVGFLFY
Kd [2, 23]: ≥ 70300 nM
Kd [3, 23]: ≥ 52100 nM
Kd [4, 23]: 450 nM
Kd [5, 23]: ≥ 69700 nM
Kd [6, 23]: ≥ 66200 nM
Kd [7, 23]: 97.6 nM

AGISYKDREW
Kd [8, 24]: 843 nM
Kd [9, 24]: 4170 nM

AHGSTLAGV
IC50 [1, 22]: 59900 nM

AYSKSLKELV
Kd [2, 23]: 2640 nM
Kd [3, 23]: ≥ 70400 nM
Kd [4, 23]: ≥ 26700 nM
Kd [5, 23]: ≥ 69700 nM
Kd [6, 23]: 16300 nM
Kd [7, 23]: ≥ 57000 nM

CEPRSGIDF
Kd [9, 24]: 901 nM

CGSVGFNIDY
Kd [2, 25]: ≥ 70300 nM
Kd [3, 25]: 7300 nM
Kd [4, 25]: 371 nM
Kd [5, 25]: ≥ 20700 nM
Kd [6, 25]: ≥ 70000 nM
Kd [7, 25]: 774 nM

DFLLQRWGG
IC50 [1, 22]: 16800 nM

DKIDQIIHD
IC50 [1, 22]: ≥ 387000 nM

DLGPAFTEL
Kd [10, 26]: ≥ 27700 nM
Kd [11]: 219 nM
Kd [12]: 8710 nM
Kd [13]: 22.2 nM

DNSTHNTPV
IC50 [1, 22]: ≥ 456000 nM

DRYPANAIV
Kd ([14]; source organism: SARS-CoV1): ≥ 25400 nM

EELPDTIETL
Kd [15, 27]: 166 nM

EEMFKKRNLT
Kd [9, 28]: 4530 nM

EERDDTLTI
Kd [9, 27]: 1430 nM

EWSVATFYL
Kd [2, 25]: 1780 nM
Kd [3, 25]: ≥ 78100 nM
Kd [4, 25]: ≥ 29700 nM
Kd [5, 25]: ≥ 45400 nM
Kd [6, 25]: 5500 nM
Kd [7, 25]: ≥ 59400 nM

FEIMDLEKRH
Kd [15, 29]: 590 nM

FEKQLGQIML
Kd [15, 27]: 144 nM

FFFVYENAF
Kd [2, 25]: ≥ 60400 nM
Kd [3, 25]: 2670 nM
Kd [4, 25]: ≥ 96800 nM
Kd [5, 25]: 9240 nM
Kd [6, 25]: ≥ 24000 nM
Kd [7, 25]: ≥ 23900 nM

FSNSGADVLY
Kd [2, 25]: ≥ 70300 nM
Kd [3, 25]: 15.3 nM
Kd [4, 25]: 9.14 nM
Kd [5, 25]: 3560 nM
Kd [6, 25]: ≥ 70000 nM
Kd [7, 25]: 74.9 nM

FSSRMYCSFY
Kd [2, 25]: ≥ 43100 nM
Kd [3, 25]: 2.72 nM
Kd [4, 25]: 2.15 nM
Kd [5, 25]: 23 nM
Kd [6, 25]: ≥ 42400 nM
Kd [7, 25]: 40.2 nM

FVSLAIDAY
Kd [2, 25]: 17300 nM
Kd [3, 25]: 2450 nM
Kd [4, 25]: 897 nM
Kd [5, 25]: 1730 nM
Kd [6, 25]: ≥ 28800 nM
Kd [7, 25]: 21.6 nM

FYTTTGIGY
Kd [2, 25]: ≥ 45800 nM
Kd [3, 25]: 242 nM
Kd [4, 25]: ≥ 93800 nM
Kd [5, 25]: 153 nM
Kd [6, 25]: ≥ 60600 nM
Kd [7, 25]: ≥ 46200 nM

GEIGAIALDF
Kd [8, 28]: 13.6 nM
Kd [9, 28]: 8.92 nM

GEIGAVTLDF
Kd [8, 24]: 17 nM
Kd [15, 24]: 73 nM
Kd [9, 24]: 21.6 nM

GESSSNPTI
Kd [8, 24]: 75.2 nM
Kd [15, 24]: 16.8 nM

HTSGPSVMA
IC50 ([1]; source organism: Sudan ebolavirus): ≥ 203000 nM

HTSSMRGVYY
Kd [2, 25]: ≥ 46800 nM
Kd [3, 25]: 58.5 nM
Kd [4, 25]: 3.4 nM
Kd [5, 25]: 52.7 nM
Kd [6, 25]: ≥ 70000 nM
Kd [7, 25]: 17.8 nM

ICGGTIDAY
Kd [2, 30]: ≥ 77500 nM
Kd [3, 30]: ≥ 40200 nM
Kd [4, 30]: 68.6 nM
Kd [5, 30]: ≥ 77900 nM
Kd [6, 30]: ≥ 77700 nM
Kd [7, 30]: ≥ 21800 nM

IEETNMITL
Kd [15, 24]: 11.9 nM

IFINKLNGA
IC50 [1, 26]: 3280 nM

KELKCGSGI
Kd [8, 29]: 678 nM
Kd [15, 29]: 206 nM

KEVALLRTY
Kd [8, 24]: 2.63 nM
Kd [9, 24]: 63.6 nM

KYKYFSGAL
Kd [2, 25]: ≥ 25700 nM
Kd [3, 25]: ≥ 78100 nM
Kd [4, 25]: ≥ 44600 nM
Kd [5, 25]: ≥ 75500 nM
Kd [6, 25]: 15000 nM
Kd [7, 25]: ≥ 25000 nM

LCANEYTGNY
Kd [2, 25]: ≥ 70300 nM
Kd [3, 25]: 445 nM
Kd [4, 25]: 80.4 nM
Kd [5, 25]: ≥ 29900 nM
Kd [6, 25]: ≥ 70000 nM
Kd [7, 25]: 98.3 nM

LDEWSVATFY
Kd [2, 25]: ≥ 32900 nM
Kd [3, 25]: 2380 nM
Kd [4, 25]: 495 nM
Kd [5, 25]: ≥ 21400 nM
Kd [6, 25]: ≥ 47900 nM
Kd [7, 25]: 95.2 nM

LEENMEVEI
Kd [15, 24]: 82.6 nM

LEKAANVQW
Kd [8, 24]: 58.4 nM
Kd [9, 24]: 392 nM

LETLLLLTL
Kd [8, 29]: 609 nM
Kd [15, 29]: 5.76 nM
Kd [9, 29]: 1340 nM

LFQFFVFLV
Kd [2, 31]: 18800 nM
Kd [3, 31]: 531 nM
Kd [4, 31]: 986 nM
Kd [5, 31]: ≥ 57200 nM
Kd [6, 31]: 15700 nM
Kd [7, 31]: 437 nM

LVINRLGAD
IC50 ([1]; source organism: Vaccinia virus WR): ≥ 131000 nM

LYNFATCGLV
Kd [2, 32]: 11900 nM
Kd [3, 32]: ≥ 31300 nM
Kd [4, 32]: 575 nM
Kd [5, 32]: ≥ 69700 nM
Kd [6, 32]: 2350 nM
Kd [7, 32]: 620 nM

MENKAWLVH
Kd ([9]; source organism: Dengue virus 2 16681-PDK53): 168 nM

NELNHILLE
Kd [9, 27]: 15300 nM

NLEDLIEWA
IC50 ([1]; source organism: Vaccinia virus): ≥ 137000 nM

PVILSLPRI
IC50 ([1]; source organism: Variola virus): 1870 nM

PVSIINNAVY
Kd [2, 25]: ≥ 70300 nM
Kd [3, 25]: 10400 nM
Kd [4, 25]: 601 nM
Kd [5, 25]: 1580 nM
Kd [6, 25]: ≥ 70000 nM
Kd [7, 25]: 101 nM

QFLGQQQPF
Kd [2, 33]: 206 nM
Kd [3, 33]: ≥ 78100 nM
Kd [4, 33]: 831 nM
Kd [5, 33]: ≥ 77900 nM
Kd [6, 33]: 7750 nM
Kd [7, 33]: 1470 nM

REDQWCGSLI
Kd [8, 29]: 373 nM
Kd [9, 29]: 888 nM

RENLLLGVGL
Kd [8, 28]: 21.4 nM
Kd [15, 28]: 2.47 nM
Kd [9, 28]: 292 nM

RYQVVECKEV
Kd [2, 34]: ≥ 70300 nM
Kd [3, 34]: ≥ 70400 nM
Kd [4, 34]: 159 nM
Kd [5, 34]: ≥ 69700 nM
Kd [6, 34]: ≥ 70000 nM
Kd [7, 34]: ≥ 71400 nM

TESHNQTFL
Kd [15, 29]: 16.3 nM

TKIDSMFLM
IC50 ([1]; source organism: Variola virus): 38000 nM

TNSVIIMAY
Kd [2, 25]: ≥ 77600 nM
Kd [3, 25]: ≥ 25800 nM
Kd [4, 25]: 2120 nM
Kd [5, 25]: 17300 nM
Kd [6, 25]: ≥ 77800 nM
Kd [7, 25]: 84.5 nM

TTFAEGVVA
IC50 [1, 22]: 50200 nM

TVAYFNMVY
Kd [2, 25]: 11000 nM
Kd [3, 25]: 123 nM
Kd [16]: 75.9 nM
Kd [4, 25]: 71 nM
Kd [5, 25]: 14.2 nM
Kd [17]: 60.5 nM
Kd [18]: ≥ 52000 nM
Kd [19]: 41.3 nM
Kd [20]: ≥ 56900 nM
Kd [6, 25]: 14100 nM
Kd [7, 25]: 3.81 nM

TVLDVGDAY
Kd [21]: 10200 nM
Kd [10, 35]: 170 nM
Kd [14, 35]: 436 nM

VELPNSLEEL
Kd [15, 27]: 29.2 nM

VFHLYLQYI
Kd [2, 25]: 1090 nM
Kd [3, 25]: 198 nM
Kd [4, 25]: ≥ 125000 nM
Kd [5, 25]: 90.7 nM
Kd [6, 25]: 566 nM
Kd [7, 25]: ≥ 71400 nM

VFNGTSWFI
Kd [2, 25]: ≥ 107000 nM
Kd [3, 25]: ≥ 78100 nM
Kd [4, 25]: ≥ 93800 nM
Kd [5, 25]: ≥ 77900 nM
Kd [6, 25]: ≥ 77800 nM
Kd [7, 25]: ≥ 45400 nM

VFRTSTPKVV
Kd [2, 36]: ≥ 70300 nM
Kd [3, 36]: ≥ 70400 nM
Kd [4, 36]: ≥ 69700 nM
Kd [5, 36]: ≥ 69700 nM
Kd [6, 36]: ≥ 70000 nM
Kd [7, 36]: ≥ 71400 nM

VIPVYQVNN
IC50 [1, 22]: ≥ 340000 nM

VISNSVAQA
IC50 [1, 22]: 5790 nM

VTLRKERLA
IC50 [1, 22]: ≥ 360000 nM

WIEFTNFKV
Kd [2, 23]: ≥ 77500 nM
Kd [3, 23]: ≥ 78100 nM
Kd [4, 23]: ≥ 49900 nM
Kd [5, 23]: ≥ 77900 nM
Kd [6, 23]: ≥ 77700 nM
Kd [7, 23]: 8070 nM

YQPSSGCYI
Kd [2, 32]: 7220 nM
Kd [6, 32]: 5410 nM
Kd [7, 32]: 14500 nM
